Assay results: patent US20230348564A1, “ANTI-CANCER PROTEINS” (UNICHEM LABORATORIES LTD, priority 2020, published 2023)

Legend:
[1] = system: neovascularization of Matrigel plug containing FGF-2 (bFGF); test: Matrigel plug assay (in-vivo anti-angiogenesis); parameters: species or system C57BL/6 mice; conditions: qdx15
Description: Healthy C57BL/6 mice were selected and grouped on the basis of body weight into […] (G1-G4, n=7). Each mouse of group G2-G4 was subcutaneously injected at right flank region with 500 μl of matrigel containing 500 ng of FGF-2 (bFGF). Whereas mice of G1 group were subcutaneously injected at right flank region with 500 μl of matrigel only. In this assay, angiogenesis-inducing compounds such as bFGF was introduced into cold liquid Matrigel which, after subcutaneous injection, solidified and permits penetration by host cells and the formation of new blood vessels (neovascularization).
Required amount of test items were taken and added to an appropriate volume of Tris Buffered Saline (TBS) to achieve the required concentrations. The dose volume given to animal was 10 mL/Kg.
Daily cage-side observations were carried out to detect any clinical signs or mortality and recorded throughout the experiment period.

[2] = system: A549 (Human lung carcinoma); test: Calcein AM cytotoxicity assay; conditions: 48h
Description: (§1) All the cancer cell lines were procured from National Centre for Cell Science, Pune (India). The cell lines were maintained under conditions as described in Table 21 below. The cell lines were sub-cultured by trypsinization followed by splitting the cell suspension into fresh flasks and supplementing with fresh culture medium.
(§2) All the cell lines were grown in specified media at 37° C. with 95% Humidity and […].
(§3) The cells were trypsinized, counted by Trypan blue method in Neuebauer's Chamber and plated in wells of flat bottom 96-well plate (dark walled plate, flat bottom) at the density corresponding to 10×10^3 cells/well/180 μl medium.
(§4) Following overnight incubation, the cells were treated with test item (20 μL) at concentrations ranging from 2.5-80 μg/mL, so that the total volume in each well is 200 μL.
(§5) The cells were incubated with the test items or positive control for a time period of 48h. Following incubation, the cell cytotoxicity was estimated using Calcein AM Cell Viability Assay Kit from R&D systems (Cat No. 4892-010-K).
(§6) Fluorescence was measured at 485 nm (excitation/528 run (emission) spectra using Synergy HT micro plate reader.
(§7) Percentage cytotoxicity wrt untreated cells was calculated using formula:
(§8) Cytotoxicity=[(RFUuntreated−RFUsample)/RFUuntreated]*100
(§9) RFU: relative fluorescence units
(§10) IC50 value was calculated using Graph-Pad Prism version 4.01 software.

[3] = system: AGS (Human stomach adenocarcinoma); test: Calcein AM cytotoxicity assay; conditions: 48h
Description: as §1, §2, §3, §4, §5, §6, §7, §8, §9, §10

[4] = system: HT-29 (Human Colorectal adenocarcinoma); test: Calcein AM cytotoxicity assay; conditions: 48h
Description: as §1, §2, §3, §4, §5, §6, §7, §8, §9, §10

[5] = system: Human Primary mammary epithelial (HMEC) cells; test: Calcein AM cytotoxicity assay; conditions: 48h
Description: as §1, §2, §3, §4, §5, §6, §7, §8, §9, §10

[6] = system: KB (Human cervical carcinoma); test: Calcein AM cytotoxicity assay; conditions: 48h
Description: as §1, §2, §3, §4, §5, §6, §7, §8, §9, §10

[7] = system: MCF-10A (Human mammary epithelial cells); test: Calcein AM cytotoxicity assay; conditions: 48h
Description: as §1, §2, §3, §4, §5, §6, §7, §8, §9, §10

[8] = system: MCF-7 (Human breast adenocarcinoma); test: Calcein AM cytotoxicity assay; conditions: 48h
Description: as §1, §2, §3, §4, §5, §6, §7, §8, §9, §10

[9] = system: PA-1 (Human Ovary carcinoma); test: Calcein AM cytotoxicity assay; conditions: 48h
Description: as §1, §2, §3, §4, §5, §6, §7, §8, §9, §10

[10] = system: PBMCs (Peripheral blood mononuclear cells); test: Calcein AM cytotoxicity assay; conditions: 48h
Description: as §1, §2, §3, §4, §5, §6, §7, §8, §9, §10

[11] = system: PC-3 (Human Prostate Cancer); test: Calcein AM cytotoxicity assay; conditions: 48h
Description: as §1, §2, §3, §4, §5, §6, §7, §8, §9, §10

[12] = system: SK-Mel-28 (Human melanoma); test: Calcein AM cytotoxicity assay; conditions: 48h
Description: as §1, §2, §3, §4, §5, §6, §7, §8, §9, §10

[13] = system: SKOV-3 (Human Ovary adenocarcinoma); test: Calcein AM cytotoxicity assay; conditions: 48h
Description: as §1, §2, §3, §4, §5, §6, §7, §8, §9, §10

[14] = system: SW620 (Human Colorectal adenocarcinoma); test: Calcein AM cytotoxicity assay; conditions: 48h
Description: as §1, §2, §3, §4, §5, §6, §7, §8, §9, §10

[15] = system: SiHa (Human cervix squamous cell carcinoma); test: Calcein AM cytotoxicity assay; conditions: 48h
Description: as §1, §2, §3, §4, §5, §6, §7, §8, §9, §10

[16] = system: THP-1 (Human acute monocytic leukemia); test: Calcein AM cytotoxicity assay; conditions: 48h
Description: as §1, §2, §3, §4, §5, §6, §7, §8, §9, §10

[17] = system: ZR-75-1 (Human ductal carcinoma); test: Calcein AM cytotoxicity assay; conditions: 48h
Description: as §1, §2, §3, §4, §5, §6, §7, §8, §9, §10

Astrocytoma (U87MG) = test: cytotoxicity in Brain Tumor Cell lines by MTT assay; conditions: 72 h

B1: SEQ ID NO. 2: recombinant lectin; variant of the S. rolfsii lectin amino acid sequence (reported as Rec-2 in WO 2010/095143) (protein)
chain: TYKITVRVYQTNPDAFFHPVEKTVWKYANGGTWTITDDQHVLTMGGSGTSGTLRFHADNGESFTATFGVHNYKRWCDIVTNLAADETGMVINQQYYSQKNREEARERQLSNYQVKNAKGRNFQIVYTEAEGNDLHANLIIG
modifications: In vitro synthesis
- neovascularization (H&E histology), in words ([1]; 10 mg/Kg, i.p.): marginally reduced
- Hemoglobin Content in the Matrigel Plug Section, Mean ([1]; G4, 10 mg/Kg, i.p.): 41.10
- reduction in hemoglobin content in homogenate of Matrigel plug compared to positive control ([1]; G4, 10 mg/Kg, i.p.): 23.6%
- Histological Observation, Fat cell Infiltration, Mean ([1]; G4, 10 mg/Kg): 1.57
- Histological Observation, Fibroblast Infiltration, Mean ([1]; G4, 10 mg/Kg): 3.29
- Histological Observation, MN cell Infiltration, Mean ([1]; G4, 10 mg/Kg): 2.71
- Histological Observation, Neovascularization, Mean ([1]; G4, 10 mg/Kg): 2.43
- IC50 [2]: >80 µg/mL
- IC50 [3]: 42.6 µg/mL
- IC50 [4]: 42.0 µg/mL
- IC50 [5]: >80 µg/mL
- IC50 [6]: 18.4 µg/mL
- IC50 [7]: >80 µg/mL
- IC50 [8]: >80 µg/mL
- IC50 [9]: 20.3 µg/mL
- IC50 [10]: >80 µg/mL
- IC50 [11]: >80 µg/mL
- IC50 [12]: >80 µg/mL
- IC50 [13]: >80 µg/mL
- IC50 [14]: >80 µg/mL
- IC50 [15]: >80 µg/mL
- IC50 [16]: >80 µg/mL
- IC50 [17]: >80 µg/mL
- % Cytotoxicity (MDA-MB-453): 46.6%
- IC50 Value (Astrocytoma (U87MG)): 98.88 µg/mL
